{"source": "paper PMC10107152", "proteins": {"B1": {"name": "2PS (2-pyrone synthase; WT-2PS) (Gerbera hybrid cultivar) (protein)", "chain": "MGSYSSDDVEVIREAGRAQGLATILAIGTATPPNCVAQADYADYYFRVTKSEHMVDLKEKFKRICEKTAIKKRYLALTEDYLQENPTMCEFMAPSLNARQDLVVTGVPMLGKEAAVKAIDEWGLPKSKITHLIFCTTAGVDMPGADYQLVKLLGLSPSVKRYMLYQQGCAAGGTVLRLAKDLAENNKGSRVLIVCSEITAILFHGPNENHLDSLVAQALFGDGAAALIVGSGPHLAVERPIFEIVSTDQTILPDTEKAMKLHLREGGLTFQLHRDVPLMVAKNIENAAEKALSPLGITDWNSVFWMVHPGGRAILDQVERKLNLKEDKLRASRHVLSEYGNLISACVLFIIDEVRKRSMAEGKSTTGEGLDCGVLFGFGPGMTVETVVLRSVRVTAAVANGN"}, "B2": {"name": "SPS (styrylpyrone synthase; WT-SPS) (Piper methysticum) (protein)", "chain": "MSKTVEDRAAQRAKGPATVLAIGTATPANVVYQTDYPDYYFRVTKSEHMTKLKNKFQRMCDRSTIKKRYMVLTEELLEKNLSLCTYMEPSLDARQDILVPEVPKLGKEAADEAIAEWGRPKSEITHLIFCTTCGVDMPGADYQLTKLLGLRSSVRRTMLYQQGCFGGGTVLRLAKDLAENNAGARVLVVCSEITTAVNFRGPSDTHLDLLVGLALFGDGAAAVIVGADPDPTLERPLFQIVSGAQTILPDSEGAINGHLREVGLTIRLLKDVPGLVSMNIEKCLMEAFAPMGIHDWNSIFWIAHPGGPTILDQVEAKLGLKEEKLKSTRAVLREYGNMSSACVLFILDEVRKRSMEEGKTTTGEGFDWGVLFGFGPGFTVETVVLHSMPIPKADEGR"}, "B3": {"name": "2PS (2-pyrone synthase; WT-2PS) (Gerbera hybrid cultivar; I201V/I343S/L202T/L261G) (protein)", "chain": "B1 chain with I201V, L202T, L261G, I343S"}, "B4": {"name": "2PS (2-pyrone synthase; WT-2PS) (Gerbera hybrid cultivar; I201V/I343S/L202T/L261A) (protein)", "chain": "B1 chain with I201V, L202T, L261A, I343S"}, "B5": {"name": "2PS (2-pyrone synthase; WT-2PS) (Gerbera hybrid cultivar; I201V/I343S/L202T/L261V) (protein)", "chain": "B1 chain with I201V, L202T, L261V, I343S"}, "B6": {"name": "2PS (2-pyrone synthase; WT-2PS) (Gerbera hybrid cultivar; I201V/I343S/L202T) (protein)", "chain": "B1 chain with I201V, L202T, I343S"}}, "substrate": "CC(C)(COP(=O)(O)OP(=O)(O)OC[C@H]1O[C@@H](n2cnc3c(N)ncnc32)[C@H](O)[C@@H]1OP(=O)(O)O)[C@@H](O)C(=O)NCCC(=O)NCCSC(=O)/C=C/c1ccccc1", "assay": "purified protein", "conditions": "varied cinnamoyl-CoA; malonyl-CoA as extender", "note": "Where a chain is given by its changes, count along the chain named. Numbers in names are those of the source."}
{"protein": "B1", "values": [{"measurement": "Km", "result": "1.6 ± 0.5", "unit": "µM"}, {"measurement": "kcat", "result": "0.000533 ± 5e-05", "unit": "s⁻¹"}, {"measurement": "kcat/Km", "result": "340 ± 60", "unit": "M⁻¹ s⁻¹"}]}
{"protein": "B2", "values": [{"measurement": "Km", "result": "3.7 ± 0.5", "unit": "µM"}, {"measurement": "kcat", "result": "0.00287 ± 0.0001", "unit": "s⁻¹"}, {"measurement": "kcat/Km", "result": "770 ± 30", "unit": "M⁻¹ s⁻¹"}]}
{"protein": "B3", "values": [{"measurement": "Km", "result": "7.1 ± 1.1", "unit": "µM"}, {"measurement": "kcat", "result": "0.165 ± 0.01", "unit": "s⁻¹"}, {"measurement": "kcat/Km", "result": "23000 ± 4000", "unit": "M⁻¹ s⁻¹"}]}
{"protein": "B4", "values": [{"measurement": "Km", "result": "4.2 ± 0.8", "unit": "µM"}, {"measurement": "kcat", "result": "0.0312 ± 0.00233", "unit": "s⁻¹"}, {"measurement": "kcat/Km", "result": "7400 ± 1500", "unit": "M⁻¹ s⁻¹"}]}
{"protein": "B5", "values": [{"measurement": "Km", "result": "2.1 ± 0.5", "unit": "µM"}, {"measurement": "kcat", "result": "0.00225 ± 0.000167", "unit": "s⁻¹"}, {"measurement": "kcat/Km", "result": "1070 ± 270", "unit": "M⁻¹ s⁻¹"}]}
{"protein": "B6", "values": [{"measurement": "Km", "result": "1.4 ± 0.3", "unit": "µM"}, {"measurement": "kcat", "result": "0.000767 ± 3.33e-05", "unit": "s⁻¹"}, {"measurement": "kcat/Km", "result": "568 ± 116", "unit": "M⁻¹ s⁻¹"}]}
